The results in this text go back to PMC4417188, “Molecular crowding enhances facilitated diffusion of two human DNA glycosylases”.

Series [1] has as its target T1, hUNG catalytic domain (Homo sapiens, UniProt P13051 94-313). The series can be described thus: stopped-flow 2-AP fluorescence (koff/kon). The settings on record: 2'-beta-fluoro-2'-deoxyuridine (Ubeta), 2-aminopurine adjacent, paired with T, 20 mM HEPES pH 7.5, 3 mM EDTA, 1 mM DTT, 0.002% Brij 35, 22 mM total Na+, with or without PEG 8K, temperature not stated for binding assays.

In series [2] the target is T1, hUNG catalytic domain. As to the kind of experiment: fluorescence anisotropy; 20% PEG 8K; 20 mM HEPES pH 7.5, 3 mM EDTA, 1 mM DTT, 0.002% Brij 35, 22 mM total Na+; with or without PEG 8K; temperature not stated for binding assays. The settings on record: protein: recombinant; label: 5'-fluorescein (FAM); (complement implied by Watson-Crick pairing).
The target in series [3] is T1, hUNG catalytic domain. The series can be described thus: fluorescence anisotropy; dilute buffer; 20 mM HEPES pH 7.5, 3 mM EDTA, 1 mM DTT, 0.002% Brij 35, 22 mM total Na+; with or without PEG 8K; temperature not stated for binding assays. To be noted: protein: recombinant; label: 5'-fluorescein (FAM); (complement implied by Watson-Crick pairing). (In general: Fluorescence polarisation rises when a labelled molecule tumbles more slowly, as on binding a larger partner.)

T1 sequence (P13051 94-313): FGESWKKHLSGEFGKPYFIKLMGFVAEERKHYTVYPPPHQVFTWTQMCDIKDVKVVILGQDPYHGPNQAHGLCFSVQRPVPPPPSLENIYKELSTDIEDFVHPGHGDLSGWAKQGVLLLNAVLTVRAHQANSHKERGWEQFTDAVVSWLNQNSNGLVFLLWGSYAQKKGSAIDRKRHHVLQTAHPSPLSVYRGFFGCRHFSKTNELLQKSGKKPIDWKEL

Broadly, the Kd is a measure of binding affinity in units of concentration. For “DS specific 19mer duplex (2-AP next to Ubeta)”, the Kd is 0.31 nM in series [1] (5% PEG 8K); 0.2 nM in series [1] (10% PEG 8K); 0.7 nM in series [1] (15% PEG 8K); 1.2 nM in series [1] (20% PEG 8K, fast phase koff used); 0.4 nM in series [1] (dilute buffer, text of Methods gives 0.3 nM).

B1: DN nonspecific 15mer duplex (dsDNA)
DNA 1: AGGCGCATAGTCGCA
DNA 2: TGCGACTATGCGCCT
In the case of B1, the equilibrium dissociation constant (Kd) worked out at 2300 ± 500 nM in series [2] and 1300 ± 500 nM in series [3].
